Experimental data as given in US8080531B2, “Methods for modulating checkpoint activation through TopBP1” (California Institute of Technology, priority 2006, dated 2011).
Blank lines part the entries; values can stand above or below the molecule they belong to.

Tests used:
Xatr-Xatrip [1] = test: Kinase assay of Xatr-Xatrip complexes isolated from Xenopus egg extracts; assay type: biochemical; details: for activation of Xatr kinase activity toward PHAS-I: isolated Xatr-Xatrip complexes, 32P-ATP, result in words; for ATR activation compared with the 972-1279 fragment: Xatr-XatripΔ222, PHAS-I, His6-human TopBP1 fragments
Text: Specifically, Applicants first isolated Xatr from egg extracts by pull-downs with FLAG-tagged Xenopus ATRIP (Xatrip). For these experiments, Applicants used both full-length Xatrip and an N-terminal truncation mutant (ΔN222) that supports normal Xatr-dependent activation of Xchk1 in egg extracts (Kumagai et al., 2004; Kim et al., 2005).
Applicants eluted the beads with FLAG peptide and mixed the eluates with a His6-tagged version of XtopBP1 that had been purified from baculovirus-infected insect cells (FIG. 1B). Finally, Applicants added ^32P-ATP and PHAS-I, a commonly used model substrate for ATR (Abraham, 2001).
Xatrip-FLAG and XatripΔN222-FLAG (20 ng/μl each) were incubated in interphase extracts containing anti-FLAG M2 antibody beads (Sigma) for 60 min at room temperature. The beads were isolated and washed twice with buffer A (10 mM HEPES-KOH (pH 7.5), 150 mM NaCl, 0.1% CHAPS, and 2.5 mM EGTA) and twice with HEPES-buffered saline (HBS; 10 mM HEPES-KOH (pH 7.5) and 150 mM NaCl). Xatr-Xatrip complexes were eluted in one-tenth the volume of the egg extract in HBS containing 0.1 mg/ml 3×-FLAG peptide (Sigma) for 60 min at 4° C. Eluates (2 μl) were used for kinase assays as described below.
Samples were incubated in 20 μl kinase buffer (50 mM Tris-HCl (pH 7.5), 10 mM MgCl2, 1 mM dithiothreitol, 100 μM nonradioactive ATP, and 100 μCi/ml [γ-^32P]ATP) containing 12.5 μg/ml PHAS-I or 50 μg/ml GST-Xmcm2 (62-122) for 30 min at room temperature. GST-XtopBP1 (972-1279) was added at a final concentration of 100 μg/ml unless indicated otherwise. In some cases, GST-Xmcm2 (62-122), GST-Xchk1 (306-352), or full-length Xchk1-Myc-His6 were used as substrates with only […] nonradioactive ATP. Reactions were terminated by boiling in gel sample buffer.

human Mcm2 on S108 = test: Phosphorylation of Mcm2 on S108 in transfected human 293T cells; assay type: cell-based
Text: To pursue this issue further, Applicants asked whether the ATR-activating domain of TopBP1 could induce ATR-dependent phosphorylation in human cells. For this purpose, Applicants constructed a version of the enhanced green fluorescent protein (EGFP) containing the SV40 nuclear localization sequence and residues 978-1286 of human TopBP1 (equivalent to residues 972-1279 of XtopBP1). Applicants also produced the W1145R mutant of this plasmid (analogous to the W1138R mutant of XtopBP1). Applicants transfected plasmids encoding these proteins into human 293T cells and performed immunoblotting with anti-phosphopeptide antibodies that detect phosphorylation of human Mcm2 on S108 (which corresponds to S92 of Xmcm2) (Cortez et al., 2004; Yoo et al., 2004).
pEGFP-NLS-TopBP1 (978-1286), which encodes EGFP followed by a nuclear localization sequence (KKKRKV, SEQ ID NO: 11) and amino acids 978-1286 of human TopBP1, was prepared from pEGFP (Clontech) by standard polymerase chain reaction-based methods. Plasmids were transfected into 293T cells with Lipofectamine 2000 (Invitrogen).

Xchk1 = test: Ectopic phosphorylation of 35S-Xchk1 in Xenopus egg extracts without checkpoint-inducing DNA; assay type: biochemical; details: 35S-Xchk1, tautomycin, no checkpoint-inducing DNA template
Description: Because the GST-XtopBP1 (972-1279) fragment could activate Xatr in vitro without the inclusion of DNA, Applicants reasoned that ectopic addition of this fragment to Xenopus egg extracts might also be able to trigger the Xatr-dependent phosphorylation of Xchk1 even in the absence of a checkpoint-inducing DNA template.
Extracts from Xenopus eggs were prepared as described (Kumagai and Dunphy, 2000). A DNA replication checkpoint response was induced by addition of 50 μg/ml aphidicolin into extracts containing demembranated sperm nuclei (3000 per μl) (Kumagai and Dunphy, 2000). To monitor DNA replication, extracts containing 1000 sperm nuclei/μl were incubated with [α-^32P]dATP (Yoo et al., 2004).

Xatr-Xatrip [2] = test: Glutathione bead pull-down of Xatr and Xatrip from egg extracts; assay type: binding, Xenopus; details: egg extracts, immunoblotting
Description: Specifically, Applicants incubated glutathione beads containing GST-XtopBP1 (972-1279) in egg extracts, reisolated the beads, and performed immunoblotting for both Xatr and Xatrip. […] In addition, in other experiments, there was no binding of Xatr or Xatrip to beads containing GST fusions of the 1-348, 333-646, or 623-984 segments from XtopBP1 (data not shown).
Applicants also tested to see if the association of XtopBP1 with Xatr depends upon Xatrip. For this experiment, Applicants removed endogenous Xatrip from egg extracts by immunodepletion with anti-Xatrip antibodies. As described previously, this procedure leaves behind approximately 30% of the endogenous Xatr, the fraction that is not in a complex with Xatrip (Kumagai et al., 2004). Next, Applicants added GST-XtopBP1 (972-1279) to the Xatrip-depleted extracts and to mock-depleted extracts that had been prepared in parallel.

Sequence of Xatr-Xatrip (Q9DE14 whole entry, the tested form may be a part): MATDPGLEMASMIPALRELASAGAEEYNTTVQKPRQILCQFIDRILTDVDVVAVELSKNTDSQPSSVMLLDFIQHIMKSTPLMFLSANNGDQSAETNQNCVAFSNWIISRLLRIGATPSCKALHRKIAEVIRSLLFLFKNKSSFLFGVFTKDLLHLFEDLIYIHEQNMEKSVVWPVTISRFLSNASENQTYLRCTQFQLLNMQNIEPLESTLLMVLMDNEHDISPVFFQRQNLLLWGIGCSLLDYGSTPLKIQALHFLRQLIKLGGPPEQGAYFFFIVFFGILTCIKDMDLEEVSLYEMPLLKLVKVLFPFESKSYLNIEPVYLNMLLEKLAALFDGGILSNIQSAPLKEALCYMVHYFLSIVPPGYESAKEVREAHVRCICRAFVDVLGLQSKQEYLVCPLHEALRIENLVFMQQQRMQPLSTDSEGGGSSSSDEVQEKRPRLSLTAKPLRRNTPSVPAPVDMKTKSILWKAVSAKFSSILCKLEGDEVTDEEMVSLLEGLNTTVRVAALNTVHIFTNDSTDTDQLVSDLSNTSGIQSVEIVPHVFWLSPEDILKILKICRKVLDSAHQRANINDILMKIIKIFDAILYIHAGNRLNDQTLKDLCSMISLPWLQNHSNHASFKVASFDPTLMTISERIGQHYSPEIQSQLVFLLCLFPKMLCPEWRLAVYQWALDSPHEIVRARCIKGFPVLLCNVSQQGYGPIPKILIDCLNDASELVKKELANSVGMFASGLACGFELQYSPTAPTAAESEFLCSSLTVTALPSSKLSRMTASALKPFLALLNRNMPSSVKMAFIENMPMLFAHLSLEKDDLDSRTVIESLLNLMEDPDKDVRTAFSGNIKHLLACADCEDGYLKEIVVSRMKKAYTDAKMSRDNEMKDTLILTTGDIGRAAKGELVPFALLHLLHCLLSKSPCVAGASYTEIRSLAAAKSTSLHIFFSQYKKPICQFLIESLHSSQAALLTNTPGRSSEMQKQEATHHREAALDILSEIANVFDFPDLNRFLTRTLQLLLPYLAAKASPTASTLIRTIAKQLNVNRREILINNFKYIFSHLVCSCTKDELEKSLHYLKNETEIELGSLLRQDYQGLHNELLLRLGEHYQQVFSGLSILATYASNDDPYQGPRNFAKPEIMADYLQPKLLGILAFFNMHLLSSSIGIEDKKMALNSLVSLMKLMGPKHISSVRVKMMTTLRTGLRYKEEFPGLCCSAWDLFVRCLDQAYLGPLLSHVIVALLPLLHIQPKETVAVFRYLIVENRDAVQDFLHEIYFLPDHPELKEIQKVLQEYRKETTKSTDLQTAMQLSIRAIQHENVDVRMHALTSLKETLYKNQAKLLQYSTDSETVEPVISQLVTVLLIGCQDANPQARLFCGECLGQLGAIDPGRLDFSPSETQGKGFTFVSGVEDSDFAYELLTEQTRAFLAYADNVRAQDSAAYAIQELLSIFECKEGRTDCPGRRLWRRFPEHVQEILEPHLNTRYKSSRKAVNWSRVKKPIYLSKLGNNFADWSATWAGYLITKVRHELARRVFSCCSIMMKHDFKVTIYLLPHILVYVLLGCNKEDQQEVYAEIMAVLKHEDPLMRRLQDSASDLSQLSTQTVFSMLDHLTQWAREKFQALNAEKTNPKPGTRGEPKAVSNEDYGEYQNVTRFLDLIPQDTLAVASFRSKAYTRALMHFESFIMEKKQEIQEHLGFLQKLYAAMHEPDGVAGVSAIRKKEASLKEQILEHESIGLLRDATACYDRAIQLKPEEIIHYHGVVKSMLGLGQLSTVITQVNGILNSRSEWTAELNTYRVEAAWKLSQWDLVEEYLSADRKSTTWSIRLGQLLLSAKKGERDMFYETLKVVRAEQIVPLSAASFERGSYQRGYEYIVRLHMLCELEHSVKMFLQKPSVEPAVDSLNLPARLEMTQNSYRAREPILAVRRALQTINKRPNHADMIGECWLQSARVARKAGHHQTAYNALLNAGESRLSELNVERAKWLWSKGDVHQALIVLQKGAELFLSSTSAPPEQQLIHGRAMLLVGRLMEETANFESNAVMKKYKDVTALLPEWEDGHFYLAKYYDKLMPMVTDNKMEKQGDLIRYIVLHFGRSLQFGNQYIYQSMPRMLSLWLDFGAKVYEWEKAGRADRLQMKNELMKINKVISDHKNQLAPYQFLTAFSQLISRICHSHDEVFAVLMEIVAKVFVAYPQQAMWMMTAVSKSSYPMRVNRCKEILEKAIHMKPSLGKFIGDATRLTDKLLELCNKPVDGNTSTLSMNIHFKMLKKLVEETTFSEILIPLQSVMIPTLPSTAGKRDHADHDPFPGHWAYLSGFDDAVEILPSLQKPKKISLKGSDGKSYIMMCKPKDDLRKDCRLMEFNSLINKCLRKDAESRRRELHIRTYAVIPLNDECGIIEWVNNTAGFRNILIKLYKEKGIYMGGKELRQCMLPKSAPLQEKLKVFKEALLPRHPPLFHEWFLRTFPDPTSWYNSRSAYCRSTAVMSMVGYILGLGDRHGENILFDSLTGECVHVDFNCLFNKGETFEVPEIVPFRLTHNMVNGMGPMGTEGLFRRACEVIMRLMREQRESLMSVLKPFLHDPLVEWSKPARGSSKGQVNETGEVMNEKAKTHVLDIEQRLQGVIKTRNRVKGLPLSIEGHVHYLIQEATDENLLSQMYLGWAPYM

Molecule: human TopBP1 (residues 978-1192): GST fusion fragment of human TopBP1 (residues 978-1192) from between BRCT domains VI and VII
activation of Xatr kinase activity toward PHAS-I (Xatr-Xatrip [1]): activated Xatr-Xatrip very effectively

Molecule: residues 978-1192: His6-Human TopBP1 fragment containing residues 978-1192
ATR activation compared with the 972-1279 fragment (Xatr-Xatrip [1]): almost as effective as the 972-1279 fragment

ATR activation compared with the 972-1279 fragment (Xatr-Xatrip [1]): significant reduction
B1: 1050-1286 fragment: His6-Human TopBP1 fragment, residues 1050-1286 (protein)
chain: NGSGKNDSKGVLTQTLEMRENFQKQLQEIMSATSIVKPQGQRTSLSRSGCNSASSTPDSTRSARSGRSRVLEALRQSRQTVPDVNTEPSQNEQIIWDDPTAREERARLASNLQWPSCPTQYSELQVDIQNLEDSPFQKPLHDSEIAKQAVCDPGNIRVTEAPKHPISEELETPIKDSHLIPTPQAPSIAFPLANPPVAPHPREKIITIEETHEELKKQYIFQLSSLNPQERIDYCHL
modifications: left off: small tags and cut ends

B2: wild-type 978-1286 fragment of human TopBP1: EGFP containing the SV40 nuclear localization sequence and residues 978-1286 of human TopBP1, expressed from transfected plasmid (protein)
chain: KKKRKVAQECKHLPESLYPHTYNPKMSLDISAVQDGRLCNSRLLSAVSSTKDDEPDPLILEENDVDNMATNNKESAPSNGSGKNDSKGVLTQTLEMRENFQKQLQEIMSATSIVKPQGQRTSLSRSGCNSASSTPDSTRSARSGRSRVLEALRQSRQTVPDVNTEPSQNEQIIWDDPTAREERARLASNLQWPSCPTQYSELQVDIQNLEDSPFQKPLHDSEIAKQAVCDPGNIRVTEAPKHPISEELETPIKDSHLIPTPQAPSIAFPLANPPVAPHPREKIITIEETHEELKKQYIFQLSSLNPQERIDYCHL
modifications: left off: large carriers
phosphorylation of Mcm2 on S108 (human Mcm2 on S108; immunoblotting): significantly elevated phosphorylation
phosphorylation of S108 (human Mcm2 on S108; indirect immunofluorescence): increase in the phosphorylation of S108

B3: residues 1050-1192: His6-Human TopBP1 fragment containing residues 1050-1192 (protein, UniProt Q92547 1050-1192, looked up, fragment)
chain: NGSGKNDSKGVLTQTLEMRENFQKQLQEIMSATSIVKPQGQRTSLSRSGCNSASSTPDSTRSARSGRSRVLEALRQSRQTVPDVNTEPSQNEQIIWDDPTAREERARLASNLQWPSCPTQYSELQVDIQNLEDSPFQKPLHDS
modifications: His6 tag
ATR activation compared with the 972-1279 fragment (Xatr-Xatrip [1]): almost as effective as the 972-1279 fragment

B4: 1008-1286 fragment: His6-Human TopBP1 fragment, residues 1008-1286 (protein)
chain: RLCNSRLLSAVSSTKDDEPDPLILEENDVDNMATNNKESAPSNGSGKNDSKGVLTQTLEMRENFQKQLQEIMSATSIVKPQGQRTSLSRSGCNSASSTPDSTRSARSGRSRVLEALRQSRQTVPDVNTEPSQNEQIIWDDPTAREERARLASNLQWPSCPTQYSELQVDIQNLEDSPFQKPLHDSEIAKQAVCDPGNIRVTEAPKHPISEELETPIKDSHLIPTPQAPSIAFPLANPPVAPHPREKIITIEETHEELKKQYIFQLSSLNPQERIDYCHL
modifications: left off: small tags and cut ends
ATR activation compared with the 972-1279 fragment (Xatr-Xatrip [1]): slight, but not very significant reduction

binding of Xatr and Xatrip to glutathione beads (Xatr-Xatrip [2]): no binding
B5: GST-XtopBP1 (1197-1513): GST fusion of XtopBP1 residues 1197-1513, containing two adjoining BRCT repeats (protein)
chain: EFEPKSAMRTPVIENNLQSPTKPDHLTPTPQAPSIAFPLANPPVAPQPREKPVQPFSKEETLKERRFQLSSLDPQERIDYSQLIEELGGVVIEKQCFDPSCTHIVVGHPLRNEKYLASMAAGKWVLHRSYLEACRAAKRFIQEEDYEWGSISILSAVTNINPQQRMLAEAAMRWRKKLQGIKQNMGIAEGAFSGWKVILNVDQTKEPGFKRLLQSGGAKVFAGHSSPLFKEASHLFADFSKLKPDEPRVNVAEAAAQGVNCLKPEYIADYLMKELPPPMNNYCLPDAIPYVRVTGTGLSRKRKTSGDVSDVKRSRHY
modifications: left off: a dimerising Fc or GST
notes: GST fusion of XtopBP1 residues 1197-1513, containing two adjoining BRCT repeats
phosphorylation of Xchk1 in egg extracts (Xchk1): did not induce any phosphorylation
activation of Xatr kinase activity toward PHAS-I (Xatr-Xatrip [1]): incapable of activating Xatr

B6: XtopBP1Δ993-1196: full-length version of XtopBP1 in which most of the ATR-activating domain had been deleted (protein)
chain: MASSENEPFCVKFIKSPENSEYFFKAYEAIKQIQSDESLQLTEEREALLLKEKDKSLYICDPFSGAAFSHLKKLGCRIVGPQVVIFCMENQRRVPRAEYPVYNMAMADVTISCTSLDKETREDVHHYVQIMGGCVYRDLNVSVTHLIAGEVGSKKYLVAASLEKPILLPSWVKELWEKSNQRIIRYSDVNMTEYLCPIFRGCTICVTGLSSLDRKEVQRLTALHGGEYTGQLKMNESTHLIVQEAKGQKYECARKWNVHCISVQWFFDSIEKGFCQDETMYKIEPASTIKSVPDTSTPTGGNSKPNSRALYDVSQISNISTSCVNESAFNSAMASRLDPPADTLENLDISSLQAPDDLLDGCRIYLCGFGGRKLDKLRKLINNGGGVRFNQLTGDVTHIIVGETDEELKQFLNKTQHRPYVLTVKWLLDSFAKGHLQPEEIYFHSSYQQTEMPSPFEPAINLTANKMSSTRGPLNHTRNHQADEDLLSQYTENNSTLIEDEHPKTSNTNSISQMSMHEDMTTCTSQSGLADTSTIIEGGLFSRKQFMVLGFLEEDEACIIDIIKKSAGKVLSSQKRAIADYAVVPLLGCEVESTVGEVVTNAWLGMCIEQEKLLDPHSNALFTPVPFLEGSTPLRECVLSVSQFMGAERDSLVYLAGLLGAKVQEFFVRKANPKKGMFASTHLVLKDAEGSKYEAAKKWNLPAVTMNWLLQCARTGRKADEDSYLVDNVPEEDKDESFISQTYKPQAIRLSMHAPCHLENHPEALTKAAVTPLDMNRFKSKAFQSVISQHNKNPQTSGGESKVLQREPSLHLDTPSKFLSKDKLFKPSFDVKDALAALETPGGPNQKNRTQSTPLSEVIGRNLQLAIANSTRQTAAVTASPQLKAAEKKEFDNSKLLINVVICVSKKLIKKQGELNGIAASLGAEYRWCFDESVTHFIYHGRQNDMSREYKSVKERSGIYIVSEHWLFACSEQQKRVPEALYPHTYNPKMSLEFEPKSAMRTPVIENNLQSPTKPDHLTPTPQAPSIAFPLANPPVAPQPREKPVQPFSKEETLKERRFQLSSLDPQERIDYSQLIEELGGVVIEKQCFDPSCTHIVVGHPLRNEKYLASMAAGKWVLHRSYLEACRAAKRFIQEEDYEWGSISILSAVTNINPQQRMLAEAAMRWRKKLQGIKQNMGIAEGAFSGWKVILNVDQTKEPGFKRLLQSGGAKVFAGHSSPLFKEASHLFADFSKLKPDEPRVNVAEAAAQGVNCLKPEYIADYLMKELPPPMNNYCLPDAIPYVRVTGTGLSRKRKTSGDVSDVKRSRHY
modifications: left off: small tags and cut ends
activation of Xatr kinase activity toward PHAS-I (Xatr-Xatrip [1]): no Xatr-activating capacity
